Measurements reported in US11732048B2, “Anti-axl antagonistic antibodies” (BERGEN TEKNOLOGIOVERFØRING AS, priority 2016, dated 2023).

B1: murine 10G5: mouse monoclonal anti-human Axl antibody from hybridoma WR-10G5-E5; VH SEQ ID NO: 28, VL SEQ ID NO: 29 (antibody, listed as Mus musculus, V domains shown)
VH: QVQLQQSGAELVRPGASVKLSCKASGYSFTDFYINWVRQRPGQGLEWIARIFPGGDNTYYNEKFKGKATLTAEESSSTAYIQLSSLTSEDSAVYFCARRGLYYAMDYWGQGISVTVSS
VL: DVLMTQTPLSLPVSLGDQASISCRSSQSLVHSNGIPYLHWYLQKPGQSPKLLIYRVSNRFSGVPDRFSGSGSGTDFTLKISRVEAEDLGVYFCSQGTHVPPTFGGGTKLEIK
modifications: (1)..(118) Mus musculus 10G5 VH domain; (1)..(112) Mus musculus 10G5 VL domain
B2: c10G5: chimeric (mouse variable/human constant) IgG1 antibody with the 10G5 VH and VL (antibody, V domains shown)
VH: B1 VH
VL: B1 VL

Columns and labels:
[1] = target: T1, Tyro3 (rhTyro3/Dtk-Fc chimera) (Homo sapiens, UniProt Q06418); test: Biacore binding analysis on immobilised human Tyro3; conditions: 10 μg/mL in HBS-EP, 25° C.
T1 construct: Soluble recombinant antigens corresponding to the extracellular domains of members of the human TAM receptor family; Fc; purchased R&D Systems 859-DK
T1 sequence (Q06418 41-429 limits assumed): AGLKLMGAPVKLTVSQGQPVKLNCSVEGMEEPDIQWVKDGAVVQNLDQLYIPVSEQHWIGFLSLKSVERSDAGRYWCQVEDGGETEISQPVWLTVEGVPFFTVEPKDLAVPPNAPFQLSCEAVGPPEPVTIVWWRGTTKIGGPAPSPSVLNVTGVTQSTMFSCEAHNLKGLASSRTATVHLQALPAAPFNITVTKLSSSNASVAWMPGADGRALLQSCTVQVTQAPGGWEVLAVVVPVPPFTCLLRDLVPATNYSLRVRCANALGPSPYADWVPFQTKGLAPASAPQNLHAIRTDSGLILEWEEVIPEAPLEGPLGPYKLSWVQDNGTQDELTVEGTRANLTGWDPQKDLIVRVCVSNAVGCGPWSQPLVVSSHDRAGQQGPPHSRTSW
Protocol: All binding experiments were performed using Biacore 3000 instrument (GE Healthcare) at 25° C. Soluble recombinant antigens corresponding to the extracellular domains of members of the human TAM receptor family, Axl (rhAxl-Fc chimera; R&D Systems, Cat. no. 154-AL), Mer (rhMer-Fc chimera; R&D Systems, Cat. no. 891-MR) and Tyro3 (rhTyro3/Dtk-Fc chimera; R&D Systems, Cat. no. 859-DK) were immobilized on the surface of CM5 sensor chip using amine coupling at the surface density of 393.0, 303.6 and 364.0 resonance units (RU), respectively. The Biacore run was performed in an automatic mode using Binding analysis wizard. Samples containing MAb 10G5 at concentration 10 μg/mL in HBS-EP buffer (GE Healthcare) were injected over the surfaces with immobilized antigens at flow rate of 30 μL/min for 3 min (association) followed by 5 min dissociation.
(§1) The binding experiments were performed using Biacore 3000 instrument (GE Healthcare) at 25° C. The soluble recombinant antigens corresponding to human Axl (rhAxl-Fc chimera; R&D Systems, Cat. no. 154-AL), mouse Axl (rmAxl-Fc chimera; R&D Systems, R&D Systems; Cat. no. 854-AX) and human Tyro3 (rhTyro3/Dtk-Fc chimera; R&D Systems, Cat. no. 859-DK) were immobilized on the surface of CM5 sensor chip using amine coupling at the surface density of 1,308.0, 2,115.9 and 1,429.0 RU, respectively. The Biacore runs were performed in an automatic mode using Binding analysis wizard.
(§2) The sample containing MAb 10G5 or recombinant mouse (rm) Axl-ligand Gas6 (R&D Systems, Cat. no. 986-GS/CF) at concentration 10 μg/mL in HBS-EP buffer (GE Healthcare) was injected over the surfaces with immobilized antigens at flow rate of 30 μL/min for 3 min (association) followed by 5 min dissociation.

[2] = target: T2, mouse Axl (rmAxl-Fc chimera; Mm-Axl-Fc) (Mus musculus, UniProt Q00993); test: Biacore binding analysis on immobilised mouse Axl
T2 construct: The soluble recombinant antigens corresponding to human Axl (rhAxl-Fc chimera; R&D Systems, Cat. no; 154-AL), mouse Axl (rmAxl-Fc chimera; Fc; purchased R&D Systems 854-AX
Protocol: as §1, §2
(§3) Sensor chip with immobilised Axl: Hs-Axl-Fc (638.2 RU), Mm-Axl-Fc (334.5 RU), Rhe-Axl-Fc (350.2 RU)
(§4) All tests were performed in parallel on Hs-Axl-Fc, Mm-Axl-Fc and Rhe-Axl-Fc surfaces.

MDA-MB-231 cells = test: Three-dimensional (3D) organotypic tumour mass model; type: cell-based, human
Protocol: A highly aggressive triple-negative human breast cancer cell line MDA-MB-231 (ATCC® HTB-26™) was cultured according to recommended conditions in Dulbecco's Modified Eagle's Medium/Nutrient Mixture F-12 Ham medium supplemented with 10% foetal bovine serum (FBS), glutamine and penicillin and streptomycin. The cells were pre-treated in suspension for at least 1 hour at 37° C., to ensure proper binding of antibodies on the cell surface before they were placed in extracellular matrix. The cells cultures were observed every day and fresh treatments were done every other day. The antibodies were used at concentrations 50-100 μg/mL. Imaging of coverslip 3D assay (35 mm dish) was done on a NIKON light microscopy using both Phase contrast and Hoffman optics. Already at day 3, difference in growth of cells treated with MAb10G5 and cells treated with a control irrelevant IgG was observed.
MDA-MB-231 cells were grown on extracellular matrix and allowed to form the highly aggressive stellate shaped morphology. Stellate-shaped tumour masses were then treated with the control IgG and antibody 10G5, as described in EXAMPLE 7.

[3] = target: T3, Hs-Axl-Fc (immobilized Axl-Fc) (Homo sapiens, UniProt P30530); test: Biacore binding competition assays, two injections (Example 22)
T3 construct: Fc
Excerpt: as §3
In this experiment, a first antibody was allowed to bind to saturation. A second antibody was then applied and its ability to bind was monitored.
If the second antibody recognizes the same (or overlapping) epitope as the first antibody then binding will be blocked. If the second antibody recognizes a different epitope then binding will be detected at the same level as if no first antibody was present.
The ability of Gas6 to block antibody binding was also tested, using Gas6 at 10 μg/mL in HBS-EP.
as §4
See FIG. 1 for a list of the pairs that were tested (in this list Contr-1 is incorrectly labeled YW367 instead of YW327.6S2var). All antibodies were at 25 μg/mL in HBS-EP.
• 2. Perform Biacore experiments at 25° C. • 3. In the instrument control software choose Direct Binding, and select settings for two injections as shown below. • 4. […] Store the template & the result file, start the analysis.

Mv4-11 tumours = test: Mv4-11 human AML xenograft in nude mice; type: in vivo, mouse; conditions: 30 mg/kg i.p. twice weekly, after three weeks of treatment, versus vehicle
Protocol: To evaluate the anti-tumour activity of anti-Axl chimeric antibodies in a model of haematological cancer, we used a mouse xenograft model of human acute myeloid leukaemia (AML). The human AML Mv4-11 cells (ATCC #CRL-9591) cells were propagated in suspension in IMDM medium supplemented with 10% FBS, 2 mM L-Glutamine, 100 U/ml penicillin and 100 μg/ml streptomycin. Nude mice were implanted s.c. into the flank with 5×10^6 Mv4-11 cells resuspended in the mixture of serum-free IMDM medium and Matrigel (1:1). When the tumour size reached 200 mm^3 (Day 0 in FIG. 15), the animals were randomized and treated with either vehicle (sterile PBS) or anti-Axl chimeric antibody 10G5 at 30 mg/kg, by i.p. injections twice weekly for 4 weeks.

T2 sequence (Q00993 19-445 limits assumed, change not shown): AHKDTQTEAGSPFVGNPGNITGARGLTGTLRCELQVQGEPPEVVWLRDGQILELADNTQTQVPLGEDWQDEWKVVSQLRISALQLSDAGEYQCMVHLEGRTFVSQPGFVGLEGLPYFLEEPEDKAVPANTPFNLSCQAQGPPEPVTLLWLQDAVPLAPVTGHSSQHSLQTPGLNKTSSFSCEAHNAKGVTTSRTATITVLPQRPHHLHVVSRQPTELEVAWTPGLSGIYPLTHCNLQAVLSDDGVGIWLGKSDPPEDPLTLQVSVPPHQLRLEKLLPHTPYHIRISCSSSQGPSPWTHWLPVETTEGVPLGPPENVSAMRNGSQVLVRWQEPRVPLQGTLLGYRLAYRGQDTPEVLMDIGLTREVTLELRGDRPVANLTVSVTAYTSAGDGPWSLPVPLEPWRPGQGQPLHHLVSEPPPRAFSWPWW

Molecule | Binding to recombinant human Tyro3 [1] | Binding to mouse Axl [2] | Effect on established stellate-shaped 3D tumour masses (MDA-MB-231 cells; 9-days old organoid masses treated 72 hours, versus control IgG) | Growth and tumour mass development in extracellular matrix (MDA-MB-231 cells; antibody 50-100 μg/mL, day 6, versus control IgG) | Competition with 1H12 for binding to Axl [3] | Inhibition of Mv4-11 tumour growth (Mv4-11 tumours)
B1 | no significant binding | no significant binding | caused degradation of stellate patterns | significantly inhibited growth and tumour mass development | No competition | –
B2 | – | – | – | – | – | around 75%
